The target in data set [1] is T1, USF (43 kDa, recombinant USF) (UniProt P22415 P22415:1-310). Kind of data set: EMSA; visible complex with 350 pg rUSF; competed by cold DK-1. Particulars: tags: expressed in and purified from bacteria; chain copies: 2; label: 32P. Here is the method: (§1) EMSA was carried out as in Miner et al. (Miner, L. L. et al., *J. Neurosci. Res.* 33:10–18 (1992)). 1 ng of DNA fragment was incubated with 1 µg nuclear extract for 20 rain at 20° C., unless otherwise indicated. After incubation, the binding mixture was resolved on 6% polyacrylamide gels containing 4% glycerol in 25 mM Tris-borate (pH 8.3), 0.5 mM EDTA. Gels were dried and exposed to Kodak X-OMAT AR film with intensifying screen.
(§2) The amount of complex formed decreased with increasing amounts of cold fragment.

In data set [2] the target is upstream stimulatory factor (USF), 43 kDa form (Homo sapiens (Human), UniProt P22415). As to the kind of experiment: cell-based or functional assay.
Data set [3] concerns the target T1, USF (43 kDa, recombinant USF). As to the kind of experiment: competition; cold competitor up to 50-fold failed to diminish complex on DK-1. To be noted: tags: expressed in and purified from bacteria; chain copies: 2. The method, then: as §1, §2

The results in this text go back to patent US5643726, “Methods for modulating transcription from the amyloid β-protein precursor (APP) promoter” (The General Hospital Corporation, dated 1996).

T1 sequence (P22415 whole entry, the tested form may be a part, one chain of several): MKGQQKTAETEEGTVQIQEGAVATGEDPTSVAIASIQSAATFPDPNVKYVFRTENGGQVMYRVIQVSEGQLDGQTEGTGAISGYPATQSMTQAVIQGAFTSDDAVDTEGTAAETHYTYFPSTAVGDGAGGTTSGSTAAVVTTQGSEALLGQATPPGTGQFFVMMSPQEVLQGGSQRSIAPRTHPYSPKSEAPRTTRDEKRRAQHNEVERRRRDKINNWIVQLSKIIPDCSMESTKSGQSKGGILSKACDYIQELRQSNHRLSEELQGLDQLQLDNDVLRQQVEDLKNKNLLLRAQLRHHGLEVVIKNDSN

B1: DK-1 fragment (APP promoter -58 to -30, AP-1/AP-4) (dsDNA)
DNA 1: GGGCCGGATCAGCTGACTCGCCTGGCTCT
DNA 2: AGAGCCAGGCGAGTCAGCTGATCCGGCCC
On to B1, for which, in data set [1], the binding result is listed as “binds”.

B2: human amyloid precursor-like protein APLP2 (other)
chain: GYIEALAAAAGTGFAVAEPQIAMFCGKLNMHVNIQTGKWEPDPTGTKSCFRTKEEVLQYCQEMYPELQITNVMEANQRVSIDNWCRRDKKQCKSRFVTPFKCLVGEFVSDVLLVPEKCRFFHKERMEVCENHQHWHTVVKEACLTQGMTLYSYGMLLPCGVDQFHGTEYVCCPQTKDYWSVSKEEEEEEDEEEEEEEDEEEDYDVYKSEFPTEADLEDFTEAAVDEDDEDEEEGEEVVEDRDYYYDTFKGDDYNEENPTEPGSDGTMSDKEITHDVKVPPTPLPTNDVDVYFETSADDNEHARFQKAEKEQLIERHRNRMDRVKKEWEEAELQAKNLPKAERQTLIQHFQAMVKALEKAEAASEKQQLVETHLARVEAMLNDRRMALENYLAALQRSDPPRPHRILQPLRRYVRAENKDRLHTIRHYQHVLAVDPEKAAQMKSQVMTHLHVIEERRNQSLSLLYKDPYVARIQENDELLQAERADMDQFTASISETPVDVRVSSEESEEIPPFHPFHPFPALPENEDTQPELYHPMKKGSGVGEQDGGLIGAEEKVINSKNKVDENMVIDETLDKEMIFNAERVGGLEERESVGPLREDFSLSSSASIGLLVIAVAIATVIVISLVMLRKRQVCTISHGIVEVDPMLTPEERHLNKMQNHGYENPTYKTLEQMQI
On to B2, for which, in data set [2], the “relative luciferase units (USF activation of transcription from the APP promoter)” value is roughly 2 fold.

B3: AP-1/AP-4 Random (dsDNA)
DNA 1: GGGCCGGAATCGTGCTGTCGCCTGGCTCT
DNA 2: AGAGCCAGGCGACAGCACGATTCCGGCCC
Regarding B3, in data set [3], the binding result is on record as “no binding”.

B4: mouse amyloid precursor-like protein APLP1 (other)
chain: MGPTSPAARGQGRRWRPPLPLLLPLSLLLLRAQLAVGNLAVGSPSAAEAPGSAQVAGLCGRLTLHRDLRTGRWEPDPQRSRRCLLDPQRVLEYCRQMYPELHIARVEQAAQAIPMERWCGGTRSGRCAHPHHEVVPFHCLPGEFVSEALLVPEGCRFLHQERMDQCESSTRRHQEAQEACSSQGLILHGSGMLLPCGSDRFRGVEYVCCPPPATPNPSGMAAGDPSTRSWPLGGRAEGGEDEEEVESFPQPVDDYFVEPPQAEEEEEEEEERAPPPSSHTPVMVSRVTPTPRPTDGVDVYFGMPGEIGEHEGFLRAKMDLEERRMRQINEVMREWAMADSQSKNLPKADRQALNEHFQSILQTLEEQVSGERQRLVETHATRVIALINDQRRAALEGFLAALQGDPPQAERVLMALRRYLRAEQKEQRHTLRHYQHVAAVDPEKAQQMRFQVQTHLQVIEERMNQSLGLLDQNPHLAQELRPQIQELLLAEHLGPSELDASVPGSSSEDKGSLQPPESKDDPPVTLPKGSTDQESSSSGREKLTPLEQYEQKVNASAPRGFPFHSSDIQRDELAPSGTGVSREALSGLLIMGAGGGSLIVLSLLLLRKKKPYGTISHGVVEVDPMLTLEEQQLRELQRHGYENPTYRFLEERP
As to B4, the “relative luciferase units (USF activation of transcription from the APP promoter)” value in data set [2] is roughly 2 fold.
